Seven molecules from paper PMC4218836, “Generation of a Single Chain Antibody Variable Fragment (scFv) to Sense Selectively RhoB Activation” (PLoS ONE, 2014) can be followed below.

One assay deals with GST-RhoAL63 (Homo sapiens (species assumed), UniProt P61586, L63).
Assay [1] has as its target T1, GST-RhoBL63 (Homo sapiens (species assumed), UniProt P62745, L63).
The target in a further assay is GST-RhoCL63 (Homo sapiens (species assumed), UniProt P08134, L63).
For a further assay, the target named is T2, endogenous RhoA (human (endogenous in HeLa), UniProt P61586).
T2 construct: RhoA, endogenous in HeLa S3 cells; source: endogenous, HeLa cell extract
The assay can be described thus: pull-down; CBD-pulldown: scFv-bound chitin beads (0,5-1 µg) with HeLa cell extracts loaded with GTPγS (100 µM), 45 min at 4°C; Western blot with anti-RhoA, anti-RhoB, anti-RhoC; GDP-loaded extracts beside it. To be noted: one partner purified. For orientation: Immunoblotting shows a protein as a band on a membrane.

Another assay concerns the target T3, endogenous RhoC (Homo sapiens (HeLa S3), UniProt P08134).
T3 construct: RhoC, endogenous in HeLa S3 cells; source: endogenous, HeLa cell extract
The description is as above. The note with it: one partner purified.

For the next assay, the target named is T4, 6xHis-RhoAL63 (Homo sapiens (species assumed), UniProt P61586, L63).
T4 construct: RhoA, mutant L63, cDNA in the pHIS parallel2 vector; also called 6his-RhoL63; source: E. coli BL21, purified (Ni-NTA, native condition); not shown: 6xHis, N-terminal, kept
The assay can be described thus: ELISA; competitive ELISA (method of Friguet): purified scFvs (10^-9-10^-8 M) incubated until equilibrium (30 min, 23-25°C) with a range of concentrations of soluble 6xHis-RhoL63, free scFv then quantified on GST-Rho-coated plates with anti-c-myc-HRP; nonlinear regression. To be noted: both partners purified.

In another assay the target is T5, 6xHis-RhoBL63 (Homo sapiens (species assumed), UniProt P62745, L63).
T5 construct: RhoB, mutant L63, cDNA in the pHIS parallel2 vector; also called 6his-RhoL63; source: E. coli BL21, purified (Ni-NTA, native condition); not shown: 6xHis, N-terminal, kept
The assay is described as above. The note with it: both partners purified.

In assay [2] the target is T6, recombinant wild type GST-RhoA (Homo sapiens (species assumed), UniProt P61586).
T6 construct: RhoA wild type, loaded with GDP or GTPγS; also called RhoAwt; RhoA-GTPγS; source: E. coli BL21, crude bacterial extract, nucleotide-loaded
As to the kind of experiment: ELISA; purified scFvs on wild type GST-Rho loaded with GTPγS (from crude bacterial extracts) and captured on glutathione coated plates; GDP-loaded GST-Rho beside it. To be noted: one partner purified. For orientation: An ELISA detects its analyte on a solid surface through an enzyme-linked reagent.

Assay [3] concerns the target T7, recombinant wild type GST-RhoB (Homo sapiens (species assumed), UniProt P62745).
T7 construct: RhoB wild type, loaded with GDP or GTPγS; also called RhoBwt; GST-RhoBwt; source: E. coli BL21, crude bacterial extract, nucleotide-loaded
The assay is described as above. To be noted: one partner purified.

Another assay has as its target T8, endogenous RhoB (human (endogenous in HeLa), UniProt P62745).
T8 construct: RhoB, endogenous in HeLa S3 cells; source: endogenous, HeLa cell extract
The assay can be described thus: pull-down; CBD-pulldown: scFv-bound chitin beads (0,5-1 µg) with HeLa cell extracts loaded with GTPγS (100 µM), 45 min at 4°C; Western blot with anti-RhoA, anti-RhoB, anti-RhoC; GDP-loaded extracts beside it. To be noted: one partner purified.

For assay [4], the target named is T1, GST-RhoBL63. The assay can be described thus: SPR; BIAcore T200; GST fusion Rho captured (about 1000 RU) by anti-GST antibody on CM5 chip, scFvs injected 6.25-100 nM, single-cycle kinetics, HBS-P pH 7.4, 25°C, GST alone as reference channel, 1:1 Langmuir model. The note with it: both partners purified.

T7 sequence (P62745 whole entry): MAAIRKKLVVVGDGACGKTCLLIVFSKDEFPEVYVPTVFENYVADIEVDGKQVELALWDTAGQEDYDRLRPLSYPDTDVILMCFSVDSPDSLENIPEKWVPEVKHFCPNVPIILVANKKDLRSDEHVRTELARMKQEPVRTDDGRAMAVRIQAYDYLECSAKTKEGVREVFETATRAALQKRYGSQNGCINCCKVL
T4 sequence (P61586 other isoform, or with tags, fused parts or gaps L63 | L63): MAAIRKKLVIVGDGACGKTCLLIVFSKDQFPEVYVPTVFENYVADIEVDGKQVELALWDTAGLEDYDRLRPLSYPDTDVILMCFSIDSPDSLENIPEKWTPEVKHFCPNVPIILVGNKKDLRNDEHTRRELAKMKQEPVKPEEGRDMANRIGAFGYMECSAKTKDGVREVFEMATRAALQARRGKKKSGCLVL
T8 sequence (P62745 whole entry): as the sequence (P62745 whole entry) above
T3 sequence (P08134 whole entry): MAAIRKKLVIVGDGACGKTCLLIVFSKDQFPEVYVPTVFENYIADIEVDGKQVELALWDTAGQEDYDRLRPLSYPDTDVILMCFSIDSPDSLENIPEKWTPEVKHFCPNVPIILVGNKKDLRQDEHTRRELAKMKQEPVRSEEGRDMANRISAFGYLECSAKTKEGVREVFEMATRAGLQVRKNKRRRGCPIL
T1 sequence (P62745 other isoform, or with tags, fused parts or gaps L63 | L63): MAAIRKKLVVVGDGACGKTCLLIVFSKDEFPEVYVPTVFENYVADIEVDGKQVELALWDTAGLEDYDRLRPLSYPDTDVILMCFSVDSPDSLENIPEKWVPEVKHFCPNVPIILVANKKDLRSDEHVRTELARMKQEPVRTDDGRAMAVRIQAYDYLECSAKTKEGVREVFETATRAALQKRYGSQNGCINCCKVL
T5 sequence (P62745 other isoform, or with tags, fused parts or gaps L63 | L63): as above
T6 sequence (P61586 whole entry): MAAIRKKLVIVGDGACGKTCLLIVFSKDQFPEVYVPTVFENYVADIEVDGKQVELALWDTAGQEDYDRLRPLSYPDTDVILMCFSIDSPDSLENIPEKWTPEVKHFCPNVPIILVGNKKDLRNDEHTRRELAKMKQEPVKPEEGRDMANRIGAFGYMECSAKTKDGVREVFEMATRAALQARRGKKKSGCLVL
T2 sequence (P61586 whole entry): as above
Chain of GST-RhoAL63 (P61586 other isoform, or with tags, fused parts or gaps L63 | L63): as the sequence (P61586 other isoform, or with tags, fused parts or gaps L63 | L63) above
Chain of GST-RhoCL63 (P08134 other isoform, or with tags, fused parts or gaps L63 | L63): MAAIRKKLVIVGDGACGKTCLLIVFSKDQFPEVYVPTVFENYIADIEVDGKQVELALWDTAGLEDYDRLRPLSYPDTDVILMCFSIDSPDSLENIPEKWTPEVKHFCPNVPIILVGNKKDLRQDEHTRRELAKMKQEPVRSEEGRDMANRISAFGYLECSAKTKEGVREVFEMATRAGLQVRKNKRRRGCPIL

B1: C1 (scFvC1) (antibody, V domains shown)
VH: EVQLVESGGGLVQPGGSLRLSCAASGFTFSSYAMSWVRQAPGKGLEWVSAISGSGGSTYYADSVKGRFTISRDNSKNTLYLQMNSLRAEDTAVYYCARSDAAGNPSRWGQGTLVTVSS
VL: SSELTQDPAVSVALGQTVRITCQGDSLRSYYASWYQQKPGQAPVLVIYGKNNRPSGIPDRFSGSSSGNTASLTITGAQAEDEADYYCNSRDSSGNHAYVFGGGTKLTVL
In the case of B1, the binding result with GST-RhoAL63, with GST-RhoBL63 [1] and in the assay with GST-RhoCL63 was “binds” in each case.

B2: scFvD10-NP3-CBD (scFvD10 in fusion with the Chitin Binding Domain, on chitin beads) (scFv, V domains shown)
VH: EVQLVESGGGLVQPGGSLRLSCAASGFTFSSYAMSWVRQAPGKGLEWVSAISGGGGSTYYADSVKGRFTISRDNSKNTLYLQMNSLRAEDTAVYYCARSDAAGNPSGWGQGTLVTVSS
VL: SSELTQDPAVSVALGQTVRITCQGDSLRSYYASWYQQKPGQAPVLVIYGKNNRPSGIPDRFSGSSSGNTASLTITGAQAEDEADYYCNSRDSSGNHAYVFGGGTKLTVL
notes: as the scFv of m2; Order scFv, NP3, CBD from the plasmid pHEN-scFv-NCBD; not shown: NP3 (N-terminal domain of the phage P3 protein), C-terminal, kept
With B2, the binding result with endogenous RhoA and in the assay with endogenous RhoC was “binds” each time.

B3: scFvF7 (soluble, in fusion with the N-terminal domain of the phage P3 protein) (scFv, V domains shown)
VH: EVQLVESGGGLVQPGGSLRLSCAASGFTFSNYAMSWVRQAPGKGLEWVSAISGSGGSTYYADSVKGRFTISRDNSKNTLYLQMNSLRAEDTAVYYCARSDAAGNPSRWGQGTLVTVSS
VL: SSELTQDPAVSVALGQTVRITCQGDSLRSYYASWYQQKPGQAPVLVIYGKNNRPSGIPDRFSGSSSGNTASLTITGAQAEDEADYYCNTRDSSGNHAYVFGGGTKLTVL
notes: evolved variant of scFvC1 (VH, linker, VL); also called clone F7; source: E. coli XL1 blue, periplasmic fraction, purified (Ni-NTA); not shown: NP3 (N-terminal domain of the phage P3 protein), C-terminal, kept
As for B3, the Kd (in general, the constant that tells how readily two partners part at equilibrium) came to 2.33 nM with 6xHis-RhoAL63 and 4.94 nM with 6xHis-RhoBL63. Further, the binding result in assay [2] and in assay [3] was “binds” each time.

B4: scFvF7-NP3-CBD (scFvF7 in fusion with the Chitin Binding Domain, on chitin beads) (scFv, V domains shown)
VH: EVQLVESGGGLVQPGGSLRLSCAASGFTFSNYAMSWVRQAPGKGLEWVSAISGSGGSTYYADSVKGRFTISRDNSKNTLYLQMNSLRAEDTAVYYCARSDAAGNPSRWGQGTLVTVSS
VL: SSELTQDPAVSVALGQTVRITCQGDSLRSYYASWYQQKPGQAPVLVIYGKNNRPSGIPDRFSGSSSGNTASLTITGAQAEDEADYYCNTRDSSGNHAYVFGGGTKLTVL
notes: as the scFv of m1; Order scFv, NP3, CBD from the plasmid pHEN-scFv-NCBD; not shown: NP3 (N-terminal domain of the phage P3 protein), C-terminal, kept
For the molecule B4, the binding result in the assay with endogenous RhoB, with endogenous RhoA and in the assay with endogenous RhoC was “binds” each time.

B5: scFvE3-NP3-CBD (scFvE3 in fusion with the Chitin Binding Domain, on chitin beads) (scFv, V domains shown)
VH: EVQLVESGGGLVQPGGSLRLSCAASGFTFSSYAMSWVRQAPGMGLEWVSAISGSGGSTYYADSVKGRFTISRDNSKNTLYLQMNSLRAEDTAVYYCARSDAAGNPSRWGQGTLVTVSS
VL: SSELTQDPAVSVALGQTVRITCQGDSLRSYYTSWYQQKPGQAPVRVIYGKNNRPSGVPDRFSGSSSGNTASLTITGAQAEDEADYYCNSRDSSGNHAYVFGGGTKLTVL
notes: as the scFv of m3; Order scFv, NP3, CBD from the plasmid pHEN-scFv-NCBD; not shown: NP3 (N-terminal domain of the phage P3 protein), C-terminal, kept
Consider B5, for which the binding result with endogenous RhoB is listed as “binds”.

B6: scFvD10 (soluble, in fusion with the N-terminal domain of the phage P3 protein) (scFv, V domains shown)
VH: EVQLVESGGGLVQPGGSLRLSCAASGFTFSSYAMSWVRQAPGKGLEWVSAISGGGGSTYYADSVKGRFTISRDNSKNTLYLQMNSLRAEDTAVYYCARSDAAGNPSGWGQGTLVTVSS
VL: SSELTQDPAVSVALGQTVRITCQGDSLRSYYASWYQQKPGQAPVLVIYGKNNRPSGIPDRFSGSSSGNTASLTITGAQAEDEADYYCNSRDSSGNHAYVFGGGTKLTVL
notes: evolved variant of scFvC1 (VH, linker, VL); also called clone D10; source: E. coli XL1 blue, periplasmic fraction, purified (Ni-NTA); not shown: NP3 (N-terminal domain of the phage P3 protein), C-terminal, kept
Turning to B6, the Kd with 6xHis-RhoAL63 is 3.38 nM. Further, the values for the binding result in [2] and in assay [3] were “binds” and “no binding”, respectively.

B7: scFvE3 (soluble, in fusion with the N-terminal domain of the phage P3 protein) (scFv, V domains shown)
VH: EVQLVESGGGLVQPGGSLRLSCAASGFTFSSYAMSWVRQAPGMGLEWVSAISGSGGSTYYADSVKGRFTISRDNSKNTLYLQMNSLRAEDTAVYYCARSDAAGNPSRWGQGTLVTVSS
VL: SSELTQDPAVSVALGQTVRITCQGDSLRSYYTSWYQQKPGQAPVRVIYGKNNRPSGVPDRFSGSSSGNTASLTITGAQAEDEADYYCNSRDSSGNHAYVFGGGTKLTVL
notes: evolved variant of scFvC1 with 4 substitutions located within the scaffold, without D100N; Isolated by subtractive panning (GST-RhoAL63 counter-selection, GST-RhoBL63 selection); also called clone E3; source: E. coli XL1 blue, periplasmic fraction, purified (Ni-NTA); not shown: NP3 (N-terminal domain of the phage P3 protein), C-terminal, kept
On to B7, for which the Kd turned out to be 22.9 nM with 6xHis-RhoAL63 and 3.63 nM in the assay with 6xHis-RhoBL63. Further, the “fold higher affinity than for GST-RhoAL63” value with GST-RhoBL63 [4] worked out at 10 fold. Besides, the binding result in [3] is given as “binds”.
